# From patent publication US20190185537A1 (AstraZeneca / MedImmune, published 2019)
# Numbered stars: 1 amine (or outer) side, 2 acyl side, 3 side chain; on linkers, the order of the positions; unused ones are H or OH. Side chains are listed from the residue outwards. Ends that are not written are not given here. * marks the point of attachment. γGlu = O=C(O)[C@H](CCC(=O)[*:2])N[*:1]; Palmitoyl = CCCCCCCCCCCCCCCC(=O)*
# T1: human glucose-dependent insulinotropic peptide (gastric inhibitory polypeptide) receptor (human, UniProt P48546 22-466)
# T1 sequence (looked up): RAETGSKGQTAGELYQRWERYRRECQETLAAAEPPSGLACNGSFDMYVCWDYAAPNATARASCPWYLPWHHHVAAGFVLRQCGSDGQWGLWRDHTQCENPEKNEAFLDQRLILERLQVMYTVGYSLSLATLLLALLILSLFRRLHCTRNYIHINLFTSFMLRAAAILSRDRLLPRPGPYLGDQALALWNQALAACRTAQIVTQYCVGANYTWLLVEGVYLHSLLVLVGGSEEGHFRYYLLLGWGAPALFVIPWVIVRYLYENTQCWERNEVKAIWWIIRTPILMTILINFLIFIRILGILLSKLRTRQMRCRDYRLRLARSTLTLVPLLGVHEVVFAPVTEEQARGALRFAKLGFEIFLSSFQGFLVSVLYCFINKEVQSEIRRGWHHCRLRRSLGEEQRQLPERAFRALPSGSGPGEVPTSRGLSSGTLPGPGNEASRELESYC
# T2: mouse GLP-1 receptor (mouse, UniProt O35659 22-463)
# T2 sequence (looked up): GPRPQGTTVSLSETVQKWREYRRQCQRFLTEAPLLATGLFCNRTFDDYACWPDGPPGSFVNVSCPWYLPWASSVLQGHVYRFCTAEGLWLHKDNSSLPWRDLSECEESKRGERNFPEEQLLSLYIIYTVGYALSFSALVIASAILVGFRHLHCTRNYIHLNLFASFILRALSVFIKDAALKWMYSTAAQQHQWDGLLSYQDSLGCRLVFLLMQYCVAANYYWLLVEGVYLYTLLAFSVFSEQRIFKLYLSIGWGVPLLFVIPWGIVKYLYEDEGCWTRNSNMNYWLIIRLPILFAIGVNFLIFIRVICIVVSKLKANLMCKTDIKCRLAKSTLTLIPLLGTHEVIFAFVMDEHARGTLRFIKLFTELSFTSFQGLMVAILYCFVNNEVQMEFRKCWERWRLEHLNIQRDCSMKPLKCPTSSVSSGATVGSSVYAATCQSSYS
# T3: rat GLP-1 receptor (rat, UniProt P32301 22-463)
# T3 sequence (looked up): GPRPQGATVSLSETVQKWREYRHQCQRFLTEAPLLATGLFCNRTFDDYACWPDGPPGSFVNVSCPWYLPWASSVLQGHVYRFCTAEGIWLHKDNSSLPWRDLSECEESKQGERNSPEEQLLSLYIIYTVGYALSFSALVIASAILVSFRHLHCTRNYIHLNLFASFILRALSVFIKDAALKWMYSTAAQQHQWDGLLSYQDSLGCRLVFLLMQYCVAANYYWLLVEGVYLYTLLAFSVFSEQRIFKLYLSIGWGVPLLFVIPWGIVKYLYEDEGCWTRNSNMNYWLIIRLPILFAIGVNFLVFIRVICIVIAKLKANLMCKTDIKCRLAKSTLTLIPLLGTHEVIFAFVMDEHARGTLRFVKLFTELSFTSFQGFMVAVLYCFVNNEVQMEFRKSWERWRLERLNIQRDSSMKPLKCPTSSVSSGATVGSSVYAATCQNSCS
# B1: G812 (peptide)
# peptide: HSQGTFTSDKSKYLEGQAAKEFIAWLEKGR
# modifications: X10 = K(gE-palm); C-terminal amide
# B2: G865 (peptide)
# peptide: HSQGTFTSDKSSYLDSRSARDFVAWLEAGG
# modifications: X10 = K(gE-palm); C-terminal amide
# B3: G380 (peptide)
# peptide: HGQGTFTSDYSKYLDSK([γGlu-Palmitoyl])RAQDFVQWLVAGG-NH2
# modifications: N-terminus assumed
# SMILES: CCCCCCCCCCCCCCCC(=O)N[C@@H](CCC(=O)NCCCC[C@H](NC(=O)[C@H](CO)NC(=O)[C@H](CC(=O)O)NC(=O)[C@H](CC(C)C)NC(=O)[C@H](Cc1ccc(O)cc1)NC(=O)[C@H](CCCCN)NC(=O)[C@H](CO)NC(=O)[C@H](Cc1ccc(O)cc1)NC(=O)[C@H](CC(=O)O)NC(=O)[C@H](CO)NC(=O)[C@@H](NC(=O)[C@H](Cc1ccccc1)NC(=O)[C@@H](NC(=O)CNC(=O)[C@H](CCC(N)=O)NC(=O)CNC(=O)[C@@H](N)Cc1c[nH]cn1)[C@@H](C)O)[C@@H](C)O)C(=O)N[C@@H](CCCNC(=N)N)C(=O)N[C@@H](C)C(=O)N[C@@H](CCC(N)=O)C(=O)N[C@@H](CC(=O)O)C(=O)N[C@@H](Cc1ccccc1)C(=O)N[C@H](C(=O)N[C@@H](CCC(N)=O)C(=O)N[C@@H](Cc1c[nH]c2ccccc12)C(=O)N[C@@H](CC(C)C)C(=O)N[C@H](C(=O)N[C@@H](C)C(=O)NCC(=O)NCC(N)=O)C(C)C)C(C)C)C(=O)O
# B4: G931 (peptide)
# peptide: HSQGTFTSDYSKK([γGlu-Palmitoyl])LDSERARDFVAWLVAGG-OH
# modifications: N-terminus assumed
# SMILES: CCCCCCCCCCCCCCCC(=O)N[C@@H](CCC(=O)NCCCC[C@H](NC(=O)[C@H](CCCCN)NC(=O)[C@H](CO)NC(=O)[C@H](Cc1ccc(O)cc1)NC(=O)[C@H](CC(=O)O)NC(=O)[C@H](CO)NC(=O)[C@@H](NC(=O)[C@H](Cc1ccccc1)NC(=O)[C@@H](NC(=O)CNC(=O)[C@H](CCC(N)=O)NC(=O)[C@H](CO)NC(=O)[C@@H](N)Cc1c[nH]cn1)[C@@H](C)O)[C@@H](C)O)C(=O)N[C@@H](CC(C)C)C(=O)N[C@@H](CC(=O)O)C(=O)N[C@@H](CO)C(=O)N[C@@H](CCC(=O)O)C(=O)N[C@@H](CCCNC(=N)N)C(=O)N[C@@H](C)C(=O)N[C@@H](CCCNC(=N)N)C(=O)N[C@@H](CC(=O)O)C(=O)N[C@@H](Cc1ccccc1)C(=O)N[C@H](C(=O)N[C@@H](C)C(=O)N[C@@H](Cc1c[nH]c2ccccc12)C(=O)N[C@@H](CC(C)C)C(=O)N[C@H](C(=O)N[C@@H](C)C(=O)NCC(=O)NCC(=O)O)C(C)C)C(C)C)C(=O)O
# B5: g848 (peptide)
# peptide: HSQGTFTSDK([γGlu-Palmitoyl])SRYLDSERARDFVAWLEAGG-NH2
# modifications: N-terminus assumed
# SMILES: CCCCCCCCCCCCCCCC(=O)N[C@@H](CCC(=O)NCCCC[C@H](NC(=O)[C@H](CC(=O)O)NC(=O)[C@H](CO)NC(=O)[C@@H](NC(=O)[C@H](Cc1ccccc1)NC(=O)[C@@H](NC(=O)CNC(=O)[C@H](CCC(N)=O)NC(=O)[C@H](CO)NC(=O)[C@@H](N)Cc1c[nH]cn1)[C@@H](C)O)[C@@H](C)O)C(=O)N[C@@H](CO)C(=O)N[C@@H](CCCNC(=N)N)C(=O)N[C@@H](Cc1ccc(O)cc1)C(=O)N[C@@H](CC(C)C)C(=O)N[C@@H](CC(=O)O)C(=O)N[C@@H](CO)C(=O)N[C@@H](CCC(=O)O)C(=O)N[C@@H](CCCNC(=N)N)C(=O)N[C@@H](C)C(=O)N[C@@H](CCCNC(=N)N)C(=O)N[C@@H](CC(=O)O)C(=O)N[C@@H](Cc1ccccc1)C(=O)N[C@H](C(=O)N[C@@H](C)C(=O)N[C@@H](Cc1c[nH]c2ccccc12)C(=O)N[C@@H](CC(C)C)C(=O)N[C@@H](CCC(=O)O)C(=O)N[C@@H](C)C(=O)NCC(=O)NCC(N)=O)C(C)C)C(=O)O
# Biological target: T4, human glucagon receptor (human, UniProt P47871 26-477)
# Assay: cell-based or functional assay
# T4 sequence (P47871 26-477): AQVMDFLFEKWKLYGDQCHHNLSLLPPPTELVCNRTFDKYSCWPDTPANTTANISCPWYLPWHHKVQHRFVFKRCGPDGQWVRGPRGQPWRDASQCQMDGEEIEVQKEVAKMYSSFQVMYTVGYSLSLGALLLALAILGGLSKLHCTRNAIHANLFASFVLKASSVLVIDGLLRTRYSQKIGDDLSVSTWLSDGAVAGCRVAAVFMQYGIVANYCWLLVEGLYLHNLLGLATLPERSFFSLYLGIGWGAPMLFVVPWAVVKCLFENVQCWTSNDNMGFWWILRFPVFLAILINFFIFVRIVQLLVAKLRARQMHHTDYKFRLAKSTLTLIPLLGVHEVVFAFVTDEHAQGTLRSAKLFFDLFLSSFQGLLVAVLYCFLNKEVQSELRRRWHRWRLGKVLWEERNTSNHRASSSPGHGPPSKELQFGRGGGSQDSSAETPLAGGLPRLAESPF
row,Binder,cAMP EC50 (assay 1) [nM]
1,B1,0.00817
2,B2,0.0126
3,B3,0.217

# Biological target: T5, human GLP-1 receptor (human, UniProt P43220 24-463)
# Assay: cell-based or functional assay
row,Binder,cAMP EC50 (assay 1) [nM]
1,B1,0.011
2,B2,0.0083
3,B3,0.077

# Biological target: T1, human glucose-dependent insulinotropic …
# Assay: cell-based or functional assay
row,Binder,cAMP EC50 (assay 1) [nM]
1,B1,2.7
2,B2,22
3,B3,130

# Biological target: T4, human glucagon receptor
# Assay: cell-based or functional assay
# Remark: another data set of the same source
row,Binder,cAMP EC50 (assay 1) [nM]
1,B4,0.0178

# Biological target: T5, human GLP-1 receptor
# Assay: cell-based or functional assay
# Remark: another data set of the same source
row,Binder,cAMP EC50 (assay 1) [nM]
1,B4,0.13

# Biological target: T4, human glucagon receptor
# Assay: cell-based or functional assay
# Remark: another data set of the same source
row,Binder,cAMP EC50 (assay 1) [nM]
1,B5,0.000966
2,B3,0.362

# Biological target: T5, human GLP-1 receptor
# Assay: cell-based or functional assay
# Remark: another data set of the same source
row,Binder,cAMP EC50 (assay 1) [nM]
1,B5,0.00942
2,B3,0.1

# Biological target: T1, human glucose-dependent insulinotropic …
# Assay: cell-based or functional assay
# Remark: another data set of the same source
row,Binder,cAMP EC50 (assay 1) [nM]
1,B5,2.77
2,B3,609

# Biological target: T4, human glucagon receptor
# Assay: cell-based or functional assay
# Remark: another data set of the same source
row,Binder,"cAMP EC50 (assay 2, 4.4% human serum albumin) [nM]"
1,B1,0.764
2,B3,53.6

# Biological target: T5, human GLP-1 receptor
# Assay: cell-based or functional assay
# Remark: another data set of the same source
row,Binder,"cAMP EC50 (assay 2, 4.4% human serum albumin) [nM]"
1,B1,0.316
2,B2,0.15
3,B3,6.54

# Biological target: T2, mouse GLP-1 receptor
# Assay: cell-based or functional assay
row,Binder,"cAMP EC50 (assay 2, 3.2% mouse serum albumin) [nM]"
1,B1,0.13
2,B2,0.096
3,B3,15

# Biological target: mouse glucagon receptor (mouse, UniProt Q61606 27-485)
# Assay: cell-based or functional assay
# mouse glucagon receptor, sequence (Q61606 27-485): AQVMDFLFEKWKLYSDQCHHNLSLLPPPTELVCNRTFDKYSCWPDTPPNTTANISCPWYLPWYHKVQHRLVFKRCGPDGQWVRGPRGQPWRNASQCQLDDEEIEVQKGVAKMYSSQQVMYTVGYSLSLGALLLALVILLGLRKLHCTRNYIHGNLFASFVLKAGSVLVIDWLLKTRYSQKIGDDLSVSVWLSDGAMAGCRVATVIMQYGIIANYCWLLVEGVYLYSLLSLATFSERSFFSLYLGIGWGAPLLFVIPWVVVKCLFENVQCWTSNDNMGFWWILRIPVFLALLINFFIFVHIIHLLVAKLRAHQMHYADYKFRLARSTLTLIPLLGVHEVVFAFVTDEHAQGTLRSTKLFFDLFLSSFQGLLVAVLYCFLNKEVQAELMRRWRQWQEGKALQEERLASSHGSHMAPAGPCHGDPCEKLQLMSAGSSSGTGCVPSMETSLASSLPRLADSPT
row,Binder,"cAMP EC50 (assay 2, 3.2% mouse serum albumin) [nM]"
1,B1,0.947
2,B2,1.1
3,B3,576

# Biological target: T3, rat GLP-1 receptor
# Assay: cell-based or functional assay
row,Binder,"cAMP EC50 (assay 2, 3.2% rat serum albumin) [nM]"
1,B1,0.019

# Biological target: rat glucagon receptor (rat, UniProt P30082 27-485)
# Assay: cell-based or functional assay
# rat glucagon receptor, sequence (P30082 27-485): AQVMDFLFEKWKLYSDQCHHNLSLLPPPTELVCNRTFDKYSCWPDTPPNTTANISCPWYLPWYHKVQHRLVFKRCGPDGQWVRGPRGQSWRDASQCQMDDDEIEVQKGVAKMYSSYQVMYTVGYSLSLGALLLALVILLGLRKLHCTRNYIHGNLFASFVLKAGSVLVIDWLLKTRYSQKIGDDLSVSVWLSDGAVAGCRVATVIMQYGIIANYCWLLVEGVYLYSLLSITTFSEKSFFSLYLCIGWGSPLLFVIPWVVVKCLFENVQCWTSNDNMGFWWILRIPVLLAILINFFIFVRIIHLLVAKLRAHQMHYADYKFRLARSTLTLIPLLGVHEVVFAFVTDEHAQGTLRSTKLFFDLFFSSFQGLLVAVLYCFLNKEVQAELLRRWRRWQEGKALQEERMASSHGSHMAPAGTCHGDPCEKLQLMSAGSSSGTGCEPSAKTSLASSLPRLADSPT
row,Binder,"cAMP EC50 (assay 2, 3.2% rat serum albumin) [nM]"
1,B1,14.1
2,B2,87.1
